Results: patent publication US20030195338A1

Key:
TNFα = TNFα (UniProt P01375); assay: cell-based or functional assay
TNFβ = biological target: T1, TNFβ (UniProt P01374); assay: cell-based or functional assay
T1 sequence (looked up): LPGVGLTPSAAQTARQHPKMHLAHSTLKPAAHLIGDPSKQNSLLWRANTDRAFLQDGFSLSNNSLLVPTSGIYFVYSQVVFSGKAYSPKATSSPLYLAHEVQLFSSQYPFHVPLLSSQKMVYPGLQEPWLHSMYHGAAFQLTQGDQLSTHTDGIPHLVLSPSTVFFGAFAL

TNFα, sequence (P01375 77-233 limits assumed): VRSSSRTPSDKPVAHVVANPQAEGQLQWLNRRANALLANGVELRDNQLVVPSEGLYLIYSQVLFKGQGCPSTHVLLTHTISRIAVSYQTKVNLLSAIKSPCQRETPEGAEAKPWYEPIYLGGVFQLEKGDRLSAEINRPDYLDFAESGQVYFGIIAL
concatameric fusion dimeric protein [TNFR2-TNFR2/Fc]2 (Fc fusion), sequence (chain): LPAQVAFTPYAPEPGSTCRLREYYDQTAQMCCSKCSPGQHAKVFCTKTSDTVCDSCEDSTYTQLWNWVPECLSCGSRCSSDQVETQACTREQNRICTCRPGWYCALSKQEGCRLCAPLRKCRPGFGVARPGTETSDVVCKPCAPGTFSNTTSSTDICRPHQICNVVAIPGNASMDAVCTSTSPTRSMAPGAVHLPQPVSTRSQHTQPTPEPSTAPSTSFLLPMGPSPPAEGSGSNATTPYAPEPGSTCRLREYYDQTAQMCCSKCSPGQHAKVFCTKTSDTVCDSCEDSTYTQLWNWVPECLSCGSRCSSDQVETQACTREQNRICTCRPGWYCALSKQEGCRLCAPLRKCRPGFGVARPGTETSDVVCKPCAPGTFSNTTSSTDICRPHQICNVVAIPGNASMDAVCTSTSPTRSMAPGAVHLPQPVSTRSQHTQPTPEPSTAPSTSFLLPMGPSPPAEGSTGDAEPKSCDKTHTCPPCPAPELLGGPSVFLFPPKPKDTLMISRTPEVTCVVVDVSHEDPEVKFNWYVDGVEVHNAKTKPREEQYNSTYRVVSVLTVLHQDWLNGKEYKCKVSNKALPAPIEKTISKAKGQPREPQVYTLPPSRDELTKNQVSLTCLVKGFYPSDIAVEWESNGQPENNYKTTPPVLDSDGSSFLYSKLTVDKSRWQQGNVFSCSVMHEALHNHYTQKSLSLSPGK
concatameric fusion dimeric protein [TNFR1-TNFR1/Fc]2 (Fc fusion), sequence (chain): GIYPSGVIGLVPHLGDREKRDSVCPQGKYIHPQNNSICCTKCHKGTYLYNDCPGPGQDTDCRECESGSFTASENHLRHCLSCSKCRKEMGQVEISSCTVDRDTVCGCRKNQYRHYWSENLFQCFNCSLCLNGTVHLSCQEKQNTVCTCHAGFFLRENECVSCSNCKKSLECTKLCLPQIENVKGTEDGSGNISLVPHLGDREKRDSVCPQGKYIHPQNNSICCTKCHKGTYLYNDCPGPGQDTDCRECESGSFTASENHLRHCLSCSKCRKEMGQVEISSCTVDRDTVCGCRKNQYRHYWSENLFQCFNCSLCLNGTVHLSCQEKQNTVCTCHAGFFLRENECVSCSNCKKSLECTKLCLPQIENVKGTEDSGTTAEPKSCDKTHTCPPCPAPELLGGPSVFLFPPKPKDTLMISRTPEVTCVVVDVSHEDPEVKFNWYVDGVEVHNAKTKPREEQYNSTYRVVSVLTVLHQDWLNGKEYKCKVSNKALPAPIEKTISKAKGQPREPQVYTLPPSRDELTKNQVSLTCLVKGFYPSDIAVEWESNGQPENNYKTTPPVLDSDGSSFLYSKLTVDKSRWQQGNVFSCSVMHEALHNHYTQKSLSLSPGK
simple fusion dimeric protein [TNFR2/Fc]2 (Fc fusion), sequence (chain): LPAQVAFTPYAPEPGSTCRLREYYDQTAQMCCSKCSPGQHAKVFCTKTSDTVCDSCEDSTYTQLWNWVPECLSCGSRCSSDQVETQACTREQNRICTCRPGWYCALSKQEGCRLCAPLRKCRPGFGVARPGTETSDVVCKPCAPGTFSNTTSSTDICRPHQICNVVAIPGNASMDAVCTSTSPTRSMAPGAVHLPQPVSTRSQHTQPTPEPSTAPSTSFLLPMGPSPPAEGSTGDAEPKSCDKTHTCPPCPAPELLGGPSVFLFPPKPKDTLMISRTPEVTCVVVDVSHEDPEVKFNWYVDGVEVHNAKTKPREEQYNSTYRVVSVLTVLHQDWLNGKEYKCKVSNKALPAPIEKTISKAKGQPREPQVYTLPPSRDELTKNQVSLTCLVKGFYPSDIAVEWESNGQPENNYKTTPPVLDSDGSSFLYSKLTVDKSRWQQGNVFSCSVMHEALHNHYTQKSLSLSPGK
simple fusion dimeric protein [TNFR1/Fc]2 (Fc fusion), sequence (chain): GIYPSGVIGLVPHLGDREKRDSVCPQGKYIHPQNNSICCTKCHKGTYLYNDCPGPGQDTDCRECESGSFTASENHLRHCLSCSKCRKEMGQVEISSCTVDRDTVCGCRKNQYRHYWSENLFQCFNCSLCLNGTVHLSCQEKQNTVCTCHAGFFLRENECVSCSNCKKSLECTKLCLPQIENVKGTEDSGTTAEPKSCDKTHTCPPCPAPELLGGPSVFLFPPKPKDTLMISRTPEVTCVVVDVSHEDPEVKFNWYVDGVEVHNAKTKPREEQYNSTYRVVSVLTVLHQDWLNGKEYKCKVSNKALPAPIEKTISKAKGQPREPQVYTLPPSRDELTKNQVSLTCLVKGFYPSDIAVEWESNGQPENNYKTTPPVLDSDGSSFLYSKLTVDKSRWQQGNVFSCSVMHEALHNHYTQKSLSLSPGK

Row | Substance | IC50 of cytotoxicity inhibition, L929 cells, TNFα treated (TNFα) [mg/L] | IC50 of cytotoxicity inhibition, L929 cells, TNFβ treated (TNFβ) [mg/L]
1 | concatameric fusion dimeric protein [TNFR1-TNFR1/Fc]2 (Fc fusion) | 9 | 20
2 | concatameric fusion dimeric protein [TNFR2-TNFR2/Fc]2 (Fc fusion) | 15 | 15
3 | simple fusion dimeric protein [TNFR1/Fc]2 (Fc fusion) | 63 | 129
4 | simple fusion dimeric protein [TNFR2/Fc]2 (Fc fusion) | 189 | 469
